In patent US20180369203:

Target: GST-tagged active human MEK1, Q02750

B1: GST-tagged inactive human ERK1 (protein)
chain: MAAAAAQGGGGGEPRRTEGVGPGVPGEVEMVKGQPFDVGPRYTQLQYIGEGAYGMVSSAYDHVRKTRVAIKKISPFEHQTYCQRTLREIQILLRFRHENVIGIRDILRASTLEAMRDVYIVQDLMETDLYKLLKSQQLSNDHICYFLYQILRGLKYIHSANVLHRDLKPSNLLINTTCDLKICDFGLARIADPEHDHTGFLTEYVATRWYRAPEIMLNSKGYTKSIDIWSVGCILAEMLSNRPIFPGKHYLDQLNHILGILGSPSQEDLNCIINMKARNYLQSLPSKTKVAWAKLFPKSDSKALDLLDRMLTFNPNKRITVEEALAHPYLEQYYDPTDEPVAEEPFTFAMELDDLPKERLKELIFQETARFQPGVLEAP
- in vitro HSF1 Ser326 phosphorylation by GST-MEK1 in the presence of inactive GST-ERK1, detected by immunoblotting: recombinant ERK1 proteins impeded in vitro HSF1 Ser326 phosphorylation by recombinant MEK1 proteins
